Data reported in the NTF2 design screens of Basanta et al. (2020).

Assay: protease stability score; higher = more stable; yeast display proteolysis, trypsin and chymotrypsin;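 also: relative to predicted unfolded state with 0 unfolded-like and 1 meaning tenfold more protease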
“SDEDEEMRELMERIHHAIKTGDEDLLHHMFDPNARVDIDGQIWHGREWEHFFLRKFKGLRIEIKRVHVQGDKIHFRGLDEINGVKFDSHLIIIIVNGKTHAIEIDHR” gave a protease stability score of 1.53.
“SELDDHMRRIMDHYIEDLVTGNEDRQQKLADPNVRVIIWQGDKIYHLHGREEWVKALRELRWHEIHVRHREPVNGKTHVDTEVDGEINGRRHRHRVHLTLLVVDGKVKLVEFDHH” gave a protease stability score of 1.37.
Sequence “TEEEEIYERVARLWAEAMLTGDWKTETNLLDPHTRYDYDVDGKHIHLHGREHFKKMLEDLLRHLRFRIRVEEIHVYGEKVEVHGKLDIHVGDKTTHEHTSVQIYVVNGKMKSIRVHSH” has a protease stability score of 1.49.
For “TELEREVETFLEMWITAIHTGDWTTLIELIDPHARLDYDGREIHGMEYYVEEFIKRLQEHGARVDIKIDRIDFQGDKVRVIGQLEVIIGEKREVKDVIIYIEKVDGKWRLHHEEIV”, the protease stability score was 1.37.
“SDLEERSKSALHHLEEVLRTGDEDESRLMLDPNVRSVYDGREFHGRELVTELLSAFLKHLRIRDVKVERVEMNENEVRWDMKIDGTVGDKRYETHVHIIVVKVNGRWFLKEVRFG” gave a protease stability score of 1.39.
Work on “DEREKEHETQIRLLIHAIQTGDESMFHKMMDPNVRIQVGDKHIHGREFFVEIFKKLIDRYPGIQLHIRIHSIRFQGEKVTIDERLEIIVGDKEMRFETEIFSQKVNGRWLIEFERIQ” yielded a protease stability score of 0.579.
“DETRETLERFWHILVRAEKTGDERIFYEMLDPNAQLNVNGRTFHGREILVKIFHEWRVHDSEIREIDIQGDKVDMHVHSDIQVGDKRIRTDMRIIMVKIDGKWLIRTLKVE” gave a protease stability score of 2.16.
Work on “DDMEEMAKEVFREWFEIVETGDEEKLLKLIDPNTRVDINGQEVHGREDISRITSKLIRELGVKHIRSEVKSFDIVGNKIRVRGLEIRDVGDKHKEIHTHFFIMKIDGKWVITNMHFH” yielded a protease stability score of 1.5.
Work on “HEHEKWMEELVRRLKHHLRTGDFETWKELADPNAKVQLVVGDKHVESIGREEMEKWFHDHMMRLGIERFEFNIQSIYVQGEKIHLLGRLHFNGQDERAEIILVVVNGRIKQIHFHLH” yielded a protease stability score of 1.2.
Sequence “SEREEHDEFIMKLSLELEKTGDEHTIERLADPNPRIILEQGDKRITRHGWEHWEELLRRLGIKHIEFHRHKAINGQVHVDGTLRFDGVTVRSELVLIMVDGVMKTIKVIIR” has a protease stability score of 1.44.
Sequence “SEDEESLKKFIELLFHSLHTGDWKDIHKNLDPHVRIEFNGQELHGREELIELIEELMKRFDHIHFRFRDVRIYGNKAVLETELELRVGDKSSRIDVTIIIEKVNGRWIIRRLHFK” has a protease stability score of 2.48.
Sequence “REEEEEIEEALRQWLTLHETGDFKYLEKLFDPNVKQDVGDKELHGRELFSKFEHELAERIKGVRFRYHYEEIHIFDGRVVLRLDGIWEIGDKSMRVTLIVIMNKFDGRWKLESLHIEYR” has a protease stability score of 1.24.
In the case of “SELEEWLFHFVKRFIRAELTGDEEEMLHLLDPNARMIIGDKHIHGRENIMELVRHFWHEIRIDHIEIKHVDFQGDKVIIHGQSDGQINGQRTTVDVRIQLIIINGRLKLLEFDNR”, the protease stability score is reported as 1.71.
For “DEHEHAFRIIAEMLVEAMKTGNEETFSRLFDPNVRITWNGRHNHGRENYVEFIRQIRVDDLHIVLEDVRVIDGVIEVHGKMRIHGIVNGRRDEFIWESRVVIVKIDGRWHIESIRFD”, the protease stability score was 1.09.
For “DEEHEIVELIMRIFLHAVLTGDWELIEKLADPNVRIIIRINGQEIHFHGREHLRHRFEHLRIDRMEIHDYKNVGDWLDIDGRENGNFNGRKHETRVHIHIRVINGKLHELRVTYR”, the protease stability score was 1.68.
“HEEEKQMREAVEEAYHVLRTGDEKTIRELADPDVRLDINGKEIIGRELFFRHLWYEFYFFKNMRITIKHYEIQGEKVHIHIEIDWNGKELRSHMEVDKVDGRWLLHSVIFR” gave a protease stability score of 0.783.
With “SEEERDAEENIRLYEELWRTGDFDIFKHLADPNVRLHINGRDVHGRENVSRLISEWRDEDIILRHFTVIDGRIEVHSEFHGQVDGQRRNTRIHIHLRKINGQWRLTEVKYE” the protease stability score was 1.12.
Sequence “HSLEKDAHEAFELFADTVRTGDEKLMQHLIDPNVRFDYNGVDLHGWKDVSRLMIELRIEDVRLTHVHVIGNKVHLDTRIHSHVNGRRIDTEMHVDIEKVNGRWVIRRIEHR” has a protease stability score of 1.47.
“DKEDEDMERIVKEFLHLHLTGDWKLMAELLDPDVRVEFDGKRYHGRENWSKLLEDEFRRIKNATIRIEIKHIDLQGDFARSEVVLHIIVNGVEHRHEMQIDMKVVNGRIHSIRIVRV” gave a protease stability score of 1.47.
With “SEDEDNMHEFFRIWSRVQETGDEEAMLKLMDPNVRTDINGVELHGREEFEKELHRLIFEWGFDRFVVHIEHEDIFNGRIHVRSRVIYGDKEVHVIIHVYKVNGQWRVEELRFE” the protease stability score was 1.41.
For “DESDKEREDVFRSWIESMRTGDEKNMRELMDPHARTEIGDKEYHGREVVEYIRREWRITHVELHRIEKQGDKIISHGHDEINIDGRKLYIHSRIIARKVNGVWIIESLEFH”, the protease stability score was 1.29.
Work on “DEEEQEFREFMKHVLEMIRTGDEDQWRKLMDPDARLIVDGKDIHGREEVVRLWSEITRHARFRDRKIHSMEIQGDKVRVDGRVLGEFNGVDRQTESHIIFHKINGRWKIHQEFIV” yielded a protease stability score of 0.882.
“HEDEHLMKRVAELIFRLLVTGDEDRMRDLLDPTTRMDINGKEFHGRDQVIEVWRRLIDHIRIEEVHLEDHDIYGDKVRWHMRIRTRQGDKQLHLETRFTADKFNGRWELQTVIFK” gave a protease stability score of 1.64.
“DEDEEEALDFMRLLVESLQTGDEELISRMADPNVLLIVNGVEHVGREFYVKWVKHLVERVDHMEIRLKRIEIYDGRAHLDTEVIFRFNGRELRKKTHLIIEKVDGRWILKSVIVE” gave a protease stability score of 2.35.
With “RDEEEEARRMMEIFLEDVRTGDEDSLKELADPNVKSEINGVELVGREEVLKTLREILRELGVSNVEVRLHRIHVYDGRAHIDGRLNVNGRELEMHVDMEKVDGRWRIRRIELR” the protease stability score was 2.27.
In the case of “SEHDEYAKKVVEIIWKDMLTGDEDKFSEMADPDVRLDIGDKHHHGMEEMTEILTRVYKHIRIEDWRIRDIRHINGKAVVDGHTTIEIGDKRIHRRVELIVIVIDGRLKTLEYRVH”, the protease stability score is reported as 1.09.
“DEDEKRVEHTERFLSHSRRTGDEETLETMFDPNAKNIIDGRIFIGREFVEIWVRKFKNATEDLKVEEIRVQGNKVELVGNLFVQVGDKRYELDTRIEMTKIDGRWIIHRIEFR” gave a protease stability score of 1.21.
“TELEKDAKEFFRIVIEAWLTGDEQKIEHLADPHVRLDINGVELHGWEELIRRLHDELHRYDYMQINVRRVEIQGEKIHVDGELELRFDGKIYRHEVEINILVVNGKNKEQKFVKK” gave a protease stability score of 0.243.
For “DEEHKEVREHIETSIQALRTGDWELLSKRMDPHVRVIVGDKHLHGREEAHKMLEEWFKRMGIDHFHIKSIEIQGDKTDVEGHMYFNGVSRDTRLYEVWVNGRLKSLTIEMR”, the protease stability score was 0.626.
With “SDSEKVSREAWELMLRDHETGDEEAFQNNVDPHTRIHINGVDYHGWRDFVDLMRELRIEHVTLRDYRVIGNKMHIHGQVHGEIDGRRINMHVTIIARKINGRWILEHSIFV” the protease stability score was 1.97.
In the case of “SEDEEAVRRILKKLLQSHETGDFRMFDRMLDPHVRLDVNGREHIGRESVHRVVEELRIEDMRLTDMHSQGNYLDIDGRLDGSVNGKKDTYRVRLVILKVDGRWIIEEMRIG”, the protease stability score is reported as 1.95.
Sequence “DEEEEIIKEQLRILKKNLETGDWKAVLKMFDPNVREDVNGQTLIGRELWAQIFVEMGVDHIIERRVDIQGDKIRLYGQLDQGDKKHTTHIHARKVDGRWTFESVHVR” has a protease stability score of 1.08.
“DELHEEYRKIYNIFRHLFETGDWDTWRKLADPHARFEYGEKVSHGREVASETIDWLLEHLRLEHFKLDHFTVQGNFFISDGTEHISYGDKTHTVKTRIILVRVNGVFHLVRIEFV” showed a protease stability score of 1.43.
For “DEDKHLSQLAIELLHRFLWTGDEHDLEHLMDPNAKLEQGDKTLHGRELVLEFFDHLVEEAGITKVDHKLRRIETYGNKVNIHGDLHVNGRTIRIEIIAVKINGKWVVRSVRIK”, the protease stability score was 1.21.
For “DEEKRHDEKLVEDFIHNVLTGDWEKLLRNMDPHARIHVDVGNFREERVGREDWIETLARRKNARFHIESYRIYNGQVDMEVRIEQGDKEHKFKLIIKFVDGVVRSISMQVE”, the protease stability score was 1.26.
Work on “DEDEELLRRRADLFLKAYITGDENLLKRLADPDVLFDVNGRVFHGREHFITWLHRQLREFKNMRIHIRDIKHEVQGNFLHSEVDVTININGKEHWFILILIASKVDGKWIVEQIEIRFE” yielded a protease stability score of 1.48.
“SEEERVLREAIKLLEHLLRTGDEKSFHELFDPDVKIEIGDKEVHGRERWVELYRTWGLENVESHVRVDDERIQGDKMEMDMQLDLRYDGRIDTTKVIILATKINGRWKLEHFEEE” gave a protease stability score of 0.028.
With “DEENKVLEHMIRLIHHDRSTGDEKVLLKLFDPHARFIYHYGDKEIHLHGRKEITDLLVKLHRHIRVDRLHIDHWEFHGDKMHIDHTTRMNVNGREMETRIDLIITIIDGVIHSIEIRQR” the protease stability score was 1.19.
Work on “HEDEHYMQRIAEDILKSFLTGDFDHIYRMADPHVKLIVGDKESIGRDDMETMLRIWLEILGADHLEVKDLKTRLVGDKIEVNVDNRIQIGDKLINVKIEIIFEKVNGRWKVSRITLKLR” yielded a protease stability score of 1.5.
Work on “DEEDEILRHFLEEFWRAIRTGDEDTLMHLMDPHAKEEVNGRELHGRHEISRHLVKLGIKHMHIDDSKRYGDKITLHITVEVNGRKIDLEVYAIKVDGRWKIEHSQIK” yielded a protease stability score of 1.05.
“DEEDEQLHRFAQLYFEAMVTGDEDLLRHLLDPHVRVHINGRELHGRENMAKWLKDFWDKYKNVQLNLHHIRVIGDKVHMDVEMDVNGREERVHIHVEMIDGVVHSSHHRIE” showed a protease stability score of 1.02.
Sequence “DEEEKDMRHVLKLWVNEFLTGNEKNLSELMDPNVRVDIDGKQLHGRETLSHKIVEDAREARVRLEVESIRVVNGKAHVDVVLRFHQGDKSDHREIRVVFRKVDGRWLLHSLEVH” has a protease stability score of 1.37.
In the case of “SEEEEWIIKVLRELTKSMETGDEDHLHHLADPDVRLHVGDKEFHGREDFKKWYTHLRIKHFELTDMRIQGEKAHLKVRVHMRYGDKEDRKEVDFTMIKIDGRWYLHSVHVR”, the protease stability score is reported as 2.09.
For “DELEQLAREVWETLRRAELTGDENRIHEMLDPNVRVDINGRESHGWDSFIYLLRELRFEDMHERDYRIRDVNGRLEITVTGDLEGEFNGKHFNRHTVIIIILEKYDGRWKVHEVKIELR”, the protease stability score was 2.19.
With “DEEEEYHRRVLETITRARLTGDEDLFRKNVDPDVKIEVHVGNFRFHDVGWEHLRRWIEELGFEIHHIEIKHEHVINGVMHQESERDGTFNGVRDRVKVRFIYFIVNGRIKHIRFEVE” the protease stability score was 0.781.
“SDETKRLEEHLKHRFRSMVTGNEEDISRLMDPNAKLIVGDKEFHGREIVLKLLLRWAHEMRLRHEEVEEIHIIGDYVRINGILHMEVGDKSIEIHTVIIILKIDGRWRDKTEHYG” gave a protease stability score of 0.654.
For “DEDDELSHRAVLLYMEAVLTGNEDFMSRLVDPDVRHIVGDKEYIGREQFVEWFNEFVEKVKNVTVRLRHHDIQGDKVVVHTEYRVNGRTWHEHVIILKINGKWRLKELRIHIE”, the protease stability score was 0.723.
Sequence “DEEHDIDRKIFEMIVDVFLTGDWKRWFDNADPDVKTEIRIGDKKIDLHGWEFFLRFLEEELRRFKNIQIMSTDVKLFNGKVDVNIEIRIGDKTQHYIYHIHTFNGVIKHVHVHSK” has a protease stability score of 1.28.
For “DEEKEHAHRFYEEWVKAWRTGDFKHMLDLIDPNTKIVINGQEYHGMEMWSHIVEHLERLHGYRINHERIHHIRNIDGKVDSDVHVRGRYNGRDIDSRMHIHLDVVDGRIKSLEFRSK”, the protease stability score was 1.55.
“DESEKHAEEFLRLLEESLLTGNWKFISELLDPRARTDYNGRDLHGRETMERWVKDFVRHIRIDHINNKTIDVQGDKVIIIGEVDGTINGRRERLEVHIFFLKVNGRWYLESTEFR” showed a protease stability score of 1.27.
